The text below walks through data of US7265201 (Takeda / Millennium, dated 2007).

Broadly, the Kd is the concentration at which binding is half-saturated.

In assay [1] the target is T1, synthetic human eotaxin (predicted mature protein consisting of amino acids 24-97) (human, UniProt P51671 24-97).
T1 construct: also called clone #25 polypeptide; synthetic mature eotaxin
As to the kind of experiment: Scatchard analysis of competition of unlabeled eotaxin with 125I-eotaxin on purified human eosinophils. As for the experimental part:
Binding of RANTES, MIP-1α and human eotaxin was carried out in binding buffer consisting of 50 mM HEPES supplemented with 1 mM CaCl_2, 5 mM MgCl_2 and 0.5% BSA. […] The final reaction volume was 200 μls. Total binding was carried out in the absence of unlabeled chemokines, and non-specific binding was determined by incubating cells with radiolabeled chemokine in the presence of 250 nM of cold chemokine. At the end of incubation, cells were washed 3 times in binding buffer plus 0.5 M NaCl. The cell pellets were transferred into LP3 tubes and counted in a gamma counter.
RANTES and MIP-1a were not able to compete with eotaxin under the conditions used. […] The observed dissociation constant is analogous to other chemokine-receptor dissociation constants.

Assay [2] concerns the target T1, synthetic human eotaxin (predicted …). As to the kind of experiment: radiolabeled eotaxin on 5×10^5 transfected L1-2 cells, with or without 125 nM unlabeled eotaxin. As for the experimental part:
Figure 11: FIG. 11 is a bar graph illustrating the binding of human eotaxin to CKR-3 transfected L1-2 cells. Radiolabeled eotaxin was incubated with 5 ×10^5 transfected cells or untransfected L1-2 cells.

T1 sequence (P51671 24-97): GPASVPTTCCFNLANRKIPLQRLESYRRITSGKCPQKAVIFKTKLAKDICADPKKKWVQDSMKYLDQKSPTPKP

B1: receptor for eotaxin on purified human eosinophils (single class of high affinity binding sites) (receptor)
chain: MTTSLDTVETFGTTSYYDDVGLLCEKADTRALMAQFVPPLYSLVFTFGLLGNVVVVMILIKYRRLRIMTNIYLLNLAISDLLFLVTLPFWIHYVRGHNWVFGHGMCKLLSGFYHTGLYSEIFFIILLTIDRYLAIVHAVFALRARTVTFGVITSIVTWGLAVLAALPEFIFYETEELFEETLCSALYPEDTVYSWRHFHTLRMTIFCLVLPLLVMAICYTGIIKTLLRCPSKKKYKAIRLIFVIMAVFFIFWTPYNVAILLSSYQSILFGNDCERTKHLDLVMLVTEVIAYSHCCMNPVIYAFVGERFRKYLRHFFHRHLLMHLGRYIPFLPSEKLERTSSVSPSTAEPELSIVF
As to B1, the Kd in assay [1] was 4.7 nM.

B2: FLAG-tagged human C-C chemokine receptor 3 (CKR-3) expressed on transfected mouse L1-2 pre-B lymphoma cells (receptor)
chain: MDYKDDDDKEFTTSLDTVETFGTTSYYDDVGLLCEKADTRALMAQFVPPLYSLVFTFGLLGNVVVVMILIKYRRLRIMTNIYLLNLAISDLLFLVTLPFWIHYVRGHNWVFGHGMCKLLSGFYHTGLYSEIFFIILLTIDRYLAIVHAVFALRARTVTFGVITSIVTWGLAVLAALPEFIFYETEELFEETLCSALYPEDTVYSWRHFHTLRMTIFCLVLPLLVMAICYTGIIKTLLRCPSKKKYKAIRLIFVIMAVFFIFWTPYNVAILLSSYQSILFGNDCERTKHLDLVMLVTEVIAYSHCCMNPVIYAFVGERFRKYLRHFFHRHLLMHLGRYIPFLPSEKLERTSSVSPSTAEPELSIVF
notes: also called C-C CKR-3; CC-CKR-3
As to B2, the binding result in assay [2] is given as “binds”.
